# Measured values taken from doi:10.1101/2022.05.31.494188.
# Molecular target: Recombinant envelope glycoprotein gp120 from HIV-1 (CM235) (HIV-1 (CM235))
# Assay: ELISA
row,Substance,EC50
1,"Aglycosylated Avaren-Fc variant (AvFc^Δgly), N200Q (Fc fusion)",0.061 nM
2,Avaren-Fc produced in glycoengineered ΔXylT/ΔFucT N. benthamiana (AvFc^ΔXF) (Fc fusion),0.048 nM
3,Avaren-Fc produced in wild-type N. benthamiana (AvFc^WT) (Fc fusion),0.051 nM
